From patent publication US20040053388A1, “Detection of protein conformation using a split ubiquitin reporter system” (priority 2003, published 2004) come the findings set out here.

One assay has as its system yeast cells. Put plainly: Growth assay of Nub-p53core-Cub—RUra3p yeast cells on media containing 5-FOA. In kind it is cell-based. The note with it: Nia fusion protein. From the text: The wild-type core domain and a destabilizing mutation V143A were further tested using a simple growth assay employing the R-ura3 reporter (see above) and selecting clones that can grow on 5-FOA. In this case the Nub (I13A) mutant Nia was used. If the Nub—X—Cub—R-ura3 fusion is […], the R-ura3 reporter will be cleaved off of the C-terminal end of Cub and subsequently be degraded by N-end rule components (see above), allowing the host yeast cell to grow on the 5-FOA selective media.
Consistent with previous results, the V143A core mutant is a destabilizing mutant when compared to the wild-type p53. […] The Nia fusion protein allows to distinguish between the cells expressing the wild type p53core (growth) and the cells expressing the V143A mutant of the core (non-growth).

Assay [1] has as its target HA-tagged Ste4p (Saccharomyces cerevisiae) (UniProt P18851). Kind of assay: cell-based or functional assay.
The test system of another assay is S. cerevisiae cells. Put plainly: Intrapolypeptide split-ubiquitin cleavage of Nub—X—Cub-Dha fusions, anti-HA immunoblot with chemiluminescence quantification. In kind it is cell-based, Saccharomyces cerevisiae. To be noted: yeast cells; for cleavage (percentage of cleaved Dha compared to the sum of cleaved and uncleaved fusion protein): 30° C., one hour induction with 100 μM CuSO4, anti-HA immunoblot. From the text:
The isoleucine residues at position three and thirteen of Nub (Nii) were replaced by valine (Nxv; Nvx) alanine (Nxa; Nax) and glycine (Nxg; Ngx) (Johnsson et al., Proc. Natl. Acad. Sci. USA 91: 10340-44, 1994; Kellis et al., Biochemistry 28: 4914-22, 1989). The residues at position 3 and 13 are indicated by the suffix in Nub with the corresponding amino acids in the single letter code. The sixteen different combinations were first tested in the otherwise native Ub which was attached in front of the dihydrofolate reductase carrying the HA epitope at its C-terminus (Ub-Dha). The analysis of the cleaved and uncleaved protein was performed by immunodetection of the proteins with the anti-HA antibody after cell extraction and SDS-PAGE separation.
S. cerevisiae cells expressing the different Nub—X—Cub-fusions were grown at 30° C. in […] of SD medium to an OD600 of 0.8 and supplemented with 100 μM CuSO4 one hour prior to cell extraction. Cell extraction for immunoblotting was performed essentially as previously described (Johnsson et al., Embo J. 13: 2686-98, 1994). Proteins were fractionated by SDS-12.5% PAGE and electroblotted onto nitrocellulose membranes (Schleicher and Schuell, Dassel, Germany), using a semi-dry transfer system (Hoefer, Pharmacia Biotech INC., San Francisco, Calif.). Blots were incubated with a monoclonal anti-ha antibody (Babco, Richmond, Calif.). Bound antibody was visualized with horseradish peroxidase-coupled rabbit anti-mouse or goat anti-rabbit antibody (BioRad, Hercules, Calif.), using the chemiluminescence detection system (Pierce, Rockford, Ill.). The chemiluminescence was quantified with the aid of the lumi-imager system (Boehringer, Mannheim, Germany).
For orientation: In western blotting, separated proteins are transferred to a membrane and probed.

For another assay, the target named is Guk1-Cub-Dha (Saccharomyces cerevisiae, UniProt P15454 1-187; P0CG63 35-76; P00375 1-187). Kind of assay: split-ubiquitin in trans: coexpression in yeast, anti-ha immunoblot of cleaved Dha. From the text:
(§1) A significant extent of the observed cleavage could arise from the intermolecular reassociation of two Ub-halves that are linked to two different polypeptides. To estimate the contribution of the intermolecular Ub-reassociation, Guk1-Cub-Dha was coexpressed with several versions of Nub-Guk1-ha as was Fpr1-Cub-Dha with several versions of Nub-Fpr1-ha (FIG. 4a). Good intermolecular Nub—Cub reassociation is only seen in cells expressing the Nᵢᵢ-fusions, whereas none or only background cleavage is seen in those cells co-expressing the corresponding Nig-fusions. Nub-mutants with a lower affinity for Cub than Nig were therefore not tested. It thus can be concluded that the cleaved Dha observed for Nig—Cub fusion proteins and for those fusion proteins containing a Nub with a lower affinity for Cub than Nig must result exclusively from the intramolecular reassociation of the coupled Ub-peptides. The structure of Guk1p offers a reasonable explanation for this observation, that can not apply for the Fpr1p fusion proteins. Here the reassociation must either occur before Fpr1p is folded or after the unfolding of the already matured protein. […] We conclude that the fraction of cleaved Dha which is detected in the immunoblot analysis of cells expressing Nvg-Fpr1-Cub-Dha is largely derived from fusion proteins which stayed in the cytosol long enough to give the Fpr1-moiety sufficient time to fold.

For a further assay, the target named is Fpr1-Cub-Dha (Saccharomyces cerevisiae, UniProt P20081 1-114; P0CG63 35-76; P00375 1-187). Described as above.
Chain of Fpr1-Cub-Dha (P20081 other isoform, or with tags, fused parts or gaps): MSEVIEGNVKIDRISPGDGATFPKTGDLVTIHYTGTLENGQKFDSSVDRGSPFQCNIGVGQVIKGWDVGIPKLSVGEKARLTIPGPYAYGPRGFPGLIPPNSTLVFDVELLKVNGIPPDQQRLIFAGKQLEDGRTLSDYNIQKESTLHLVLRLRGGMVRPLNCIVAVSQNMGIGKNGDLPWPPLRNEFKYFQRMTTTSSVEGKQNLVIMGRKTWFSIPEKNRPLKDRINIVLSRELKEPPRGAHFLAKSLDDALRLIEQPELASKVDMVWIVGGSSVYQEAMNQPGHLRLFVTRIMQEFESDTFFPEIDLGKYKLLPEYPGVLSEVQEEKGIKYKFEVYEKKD
Excerpt: as §1

Chain of HA-tagged Ste4p (Saccharomyces cerevisiae) (P18851 other isoform, or with tags, fused parts or gaps limits assumed): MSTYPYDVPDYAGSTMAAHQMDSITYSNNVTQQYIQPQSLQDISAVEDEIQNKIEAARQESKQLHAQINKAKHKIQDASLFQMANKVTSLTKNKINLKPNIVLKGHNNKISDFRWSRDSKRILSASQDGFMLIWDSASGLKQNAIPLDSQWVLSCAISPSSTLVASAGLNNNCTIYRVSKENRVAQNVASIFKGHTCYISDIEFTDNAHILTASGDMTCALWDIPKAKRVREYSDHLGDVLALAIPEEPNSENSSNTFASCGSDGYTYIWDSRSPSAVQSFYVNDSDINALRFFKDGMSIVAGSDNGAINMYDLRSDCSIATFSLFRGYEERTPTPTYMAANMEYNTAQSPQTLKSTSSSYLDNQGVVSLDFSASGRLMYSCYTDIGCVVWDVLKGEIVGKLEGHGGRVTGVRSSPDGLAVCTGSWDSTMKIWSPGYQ
Chain of Guk1-Cub-Dha (P15454 other isoform, or with tags, fused parts or gaps): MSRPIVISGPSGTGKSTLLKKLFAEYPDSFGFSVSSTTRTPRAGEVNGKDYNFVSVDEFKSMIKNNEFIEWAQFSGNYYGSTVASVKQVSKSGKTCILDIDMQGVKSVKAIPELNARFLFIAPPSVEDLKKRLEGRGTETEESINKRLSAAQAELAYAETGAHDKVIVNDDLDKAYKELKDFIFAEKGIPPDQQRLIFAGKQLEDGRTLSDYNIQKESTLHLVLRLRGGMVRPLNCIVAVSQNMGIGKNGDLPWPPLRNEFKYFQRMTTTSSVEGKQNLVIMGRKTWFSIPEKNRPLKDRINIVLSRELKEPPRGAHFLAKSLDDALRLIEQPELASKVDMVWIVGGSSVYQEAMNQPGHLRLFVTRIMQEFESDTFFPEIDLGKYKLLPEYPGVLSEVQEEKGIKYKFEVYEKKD

Regarding “wild type p53core: p53 core domain (amino acids 102-292) in Nub-p53core-Cub—RUra3p fusion”, the “growth on media containing 5-FOA” value in the assay with yeast cells is “growth”.
With “Nvg-Ste1874-Cub-Dha (from UniProt P0CG63 1-37; P18852 37-105; P0CG63 35-76; P00375 1-187)”, in assay [1], the ratio of uncleaved to cleaved fusion protein with HA-Ste4p against without, expression not induced by copper stood at 1.6 fold.
Regarding “Nvg-Ste1891-Cub-Dha (from UniProt P0CG63 1-37; P18852 20-105; P0CG63 35-76; P00375 1-187)”, in assay [1], the fraction of uncleaved fusion protein (ratio of uncleaved to cleaved) with HA-Ste4p against without, inducing conditions (+Cu2+) is 2 fold and the fraction of uncleaved fusion protein (ratio of uncleaved to cleaved) with HA-Ste4p against without, non-inducing conditions is 3.6 fold.

B1: Guk1V5R: Fusion construct of Guk1p with valine 5 replaced by arginine (protein, UniProt P15454 2-187, looked up, variant V5R)
Guanylate kinase: SRPIRISGPSGTGKSTLLKKLFAEYPDSFGFSVSSTTRTPRAGEVNGKDYNFVSVDEFKSMIKNNEFIEWAQFSGNYYGSTVASVKQVSKSGKTCILDIDMQGVKSVKAIPELNARFLFIAPPSVEDLKKRLEGRGTETEESINKRLSAAQAELAYAETGAHDKVIVNDDLDKAYKELKDFIFAEK
modifications: split-ubiquitin fusion construct
notes: Fusion construct of Guk1p with valine 5 replaced by arginine
On to B1, for which the “cleavage (percentage of cleaved Dha compared to the sum of cleaved and uncleaved fusion protein)” value in the assay on S. cerevisiae cells was found to be 61%.

B2: Nvg-Guk1G8R—Cub-Dha: Nvg—Cub-Dha fusion of Guk1p with glycine 8 replaced by arginine (protein, UniProt P15454 2-187, looked up, variant G8R)
Guanylate kinase: SRPIVISRPSGTGKSTLLKKLFAEYPDSFGFSVSSTTRTPRAGEVNGKDYNFVSVDEFKSMIKNNEFIEWAQFSGNYYGSTVASVKQVSKSGKTCILDIDMQGVKSVKAIPELNARFLFIAPPSVEDLKKRLEGRGTETEESINKRLSAAQAELAYAETGAHDKVIVNDDLDKAYKELKDFIFAEK
modifications: fused to Nvg, Cub, Dha
notes: Nvg—Cub-Dha fusion of Guk1p with glycine 8 replaced by arginine
For B2, the “cleavage of fusion protein (in words)” value in the assay on S. cerevisiae cells (anti-HA immunoblot) is on record as “cleaved as completely as the corresponding wild type construct”.

B3: Fpr1V107A (protein, UniProt P20081 2-114, looked up, variant V107A)
FK506-binding protein 1: SEVIEGNVKIDRISPGDGATFPKTGDLVTIHYTGTLENGQKFDSSVDRGSPFQCNIGVGQVIKGWDVGIPKLSVGEKARLTIPGPYAYGPRGFPGLIPPNSTLVFDAELLKVN
On to B3, for which the “cleavage (percentage of cleaved Dha compared to the sum of cleaved and uncleaved fusion protein)” value in the assay on S. cerevisiae cells was 55%.

B4: Fpr1V107G (protein, UniProt P20081 2-114, looked up, variant V107G)
FK506-binding protein 1: SEVIEGNVKIDRISPGDGATFPKTGDLVTIHYTGTLENGQKFDSSVDRGSPFQCNIGVGQVIKGWDVGIPKLSVGEKARLTIPGPYAYGPRGFPGLIPPNSTLVFDGELLKVN
Consider B4, for which the “cleavage (percentage of cleaved Dha compared to the sum of cleaved and uncleaved fusion protein)” value in the assay on S. cerevisiae cells is listed as 40%.

B5: Nig-Guk1-ha (other, UniProt P0CG63 1-37, looked up, not shown: small tags and cut ends)
chain: MQIFVKTLTGKTGTLEVESSDTIDNVKSKIQDKEGIPMSRPIVISGPSGTGKSTLLKKLFAEYPDSFGFSVSSTTRTPRAGEVNGKDYNFVSVDEFKSMIKNNEFIEWAQFSGNYYGSTVASVKQVSKSGKTCILDIDMQGVKSVKAIPELNARFLFIAPPSVEDLKKRLEGRGTETEESINKRLSAAQAELAYAETGAHDKVIVNDDLDKAYKELKDFIFAEK
notes: also called Nub-Guk1-ha; Nig-fusion
In the case of B5, in the assay with Guk1-Cub-Dha, the binding result was “no binding”.

B6: Nig-Fpr1-ha (other, UniProt P0CG63 1-37, looked up, not shown: small tags and cut ends)
chain: MQIFVKTLTGKTGTLEVESSDTIDNVKSKIQDKEGIPMSEVIEGNVKIDRISPGDGATFPKTGDLVTIHYTGTLENGQKFDSSVDRGSPFQCNIGVGQVIKGWDVGIPKLSVGEKARLTIPGPYAYGPRGFPGLIPPNSTLVFDVELLKVN
notes: also called Nub-Fpr1-ha; Nig-fusion
As for B6, in the assay with Fpr1-Cub-Dha, the binding result was “no binding”.
